US20150064134A1

Key:
Assay in all cases: cell-based or functional assay
MKK7β(h) (human) = MKK7β(h) (human) (UniProt O14733)
JAK3(h) (human) = JAK3(h) (human) (UniProt P52333)
Yes(h) (human) = Yes(h) (human) (UniProt P07947)
BrSK2(h) (human) = molecular target: T1, BrSK2(h) (human) (UniProt Q8IWQ3)
T1 sequence (looked up): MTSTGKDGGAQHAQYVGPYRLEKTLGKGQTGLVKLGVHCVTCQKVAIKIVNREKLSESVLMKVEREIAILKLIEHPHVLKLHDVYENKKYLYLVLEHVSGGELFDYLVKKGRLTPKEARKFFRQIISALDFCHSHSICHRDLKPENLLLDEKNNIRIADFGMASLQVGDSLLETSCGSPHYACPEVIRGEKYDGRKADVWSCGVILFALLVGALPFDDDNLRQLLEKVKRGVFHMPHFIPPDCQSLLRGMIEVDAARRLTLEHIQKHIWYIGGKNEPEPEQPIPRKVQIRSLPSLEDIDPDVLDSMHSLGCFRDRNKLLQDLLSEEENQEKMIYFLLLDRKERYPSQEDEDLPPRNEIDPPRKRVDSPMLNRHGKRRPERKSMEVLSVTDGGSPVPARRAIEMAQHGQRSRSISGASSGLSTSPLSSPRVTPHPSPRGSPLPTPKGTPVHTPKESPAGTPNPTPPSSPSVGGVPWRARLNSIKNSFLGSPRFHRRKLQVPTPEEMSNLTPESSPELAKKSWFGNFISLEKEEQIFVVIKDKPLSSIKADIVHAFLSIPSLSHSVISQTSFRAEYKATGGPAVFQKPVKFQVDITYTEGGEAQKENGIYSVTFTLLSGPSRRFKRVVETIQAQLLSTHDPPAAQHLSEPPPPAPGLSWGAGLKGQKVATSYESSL

EphA2(h) (human) = EphA2(h) (human) (UniProt P29317)
Chain of EphA2(h) (human) (P29317 559-976 limits assumed): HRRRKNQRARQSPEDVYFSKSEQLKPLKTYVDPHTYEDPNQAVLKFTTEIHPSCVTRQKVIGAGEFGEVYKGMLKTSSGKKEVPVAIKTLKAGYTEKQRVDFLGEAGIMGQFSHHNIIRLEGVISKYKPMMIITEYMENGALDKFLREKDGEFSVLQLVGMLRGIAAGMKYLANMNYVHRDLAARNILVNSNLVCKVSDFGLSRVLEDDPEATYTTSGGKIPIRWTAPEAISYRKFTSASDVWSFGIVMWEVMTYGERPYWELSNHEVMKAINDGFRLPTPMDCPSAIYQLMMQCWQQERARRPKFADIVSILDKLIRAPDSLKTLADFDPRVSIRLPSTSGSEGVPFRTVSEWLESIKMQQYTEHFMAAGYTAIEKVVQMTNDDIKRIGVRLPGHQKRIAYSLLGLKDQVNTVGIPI

Met(Y1248H)(h) (human) = Met(Y1248H)(h) (human) (UniProt P08581)
ACK1(h) (human) = ACK1(h) (human) (UniProt Q07912)
JNK1α1(h) (human) = JNK1α1(h) (human) (UniProt P45983)
MSSK1(h) (human) = MSSK1(h) (human) (UniProt Q9UPE1)
FAK(h) (human) = FAK(h) (human) (UniProt Q05397)
FGFR1(V561M)(h) (human) = FGFR1(V561M)(h) (human) (UniProt P11362)
Chain of FGFR1(V561M)(h) (human) (P11362 456-765 V561M limits assumed): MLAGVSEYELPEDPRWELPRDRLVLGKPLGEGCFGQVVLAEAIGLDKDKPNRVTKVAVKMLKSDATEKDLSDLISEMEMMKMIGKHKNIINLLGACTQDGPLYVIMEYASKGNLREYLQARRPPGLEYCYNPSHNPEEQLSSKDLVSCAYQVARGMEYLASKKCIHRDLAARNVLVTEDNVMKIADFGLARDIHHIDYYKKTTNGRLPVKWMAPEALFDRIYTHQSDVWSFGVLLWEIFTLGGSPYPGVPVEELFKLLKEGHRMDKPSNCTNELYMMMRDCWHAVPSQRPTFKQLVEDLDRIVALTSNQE

BTK(h) (human) = BTK(h) (human) (UniProt Q06187)
Fms(Y969C)(h) (human) = molecular target: T2, Fms(Y969C)(h) (human) (UniProt P07333)
T2 sequence (looked up): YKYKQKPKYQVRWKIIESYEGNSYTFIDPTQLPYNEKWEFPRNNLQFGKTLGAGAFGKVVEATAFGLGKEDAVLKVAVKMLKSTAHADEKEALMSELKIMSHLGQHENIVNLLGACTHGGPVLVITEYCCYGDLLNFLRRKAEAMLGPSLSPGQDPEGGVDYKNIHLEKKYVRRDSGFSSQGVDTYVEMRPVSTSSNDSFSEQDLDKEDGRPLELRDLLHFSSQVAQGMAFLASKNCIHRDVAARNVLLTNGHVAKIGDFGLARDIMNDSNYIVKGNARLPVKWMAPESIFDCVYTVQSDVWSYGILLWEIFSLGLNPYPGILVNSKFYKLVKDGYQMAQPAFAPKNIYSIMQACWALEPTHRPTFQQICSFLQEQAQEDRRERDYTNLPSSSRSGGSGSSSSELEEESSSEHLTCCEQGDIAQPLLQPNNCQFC

SRPK2(h) (human) = SRPK2(h) (human) (UniProt P78362)
EGFR(L858R)(h) (human) = EGFR(L858R)(h) (human) (UniProt P00533)
TAK1(h) (human) = molecular target: T3, TAK1(h) (human) (UniProt O43318)
T3 sequence (looked up): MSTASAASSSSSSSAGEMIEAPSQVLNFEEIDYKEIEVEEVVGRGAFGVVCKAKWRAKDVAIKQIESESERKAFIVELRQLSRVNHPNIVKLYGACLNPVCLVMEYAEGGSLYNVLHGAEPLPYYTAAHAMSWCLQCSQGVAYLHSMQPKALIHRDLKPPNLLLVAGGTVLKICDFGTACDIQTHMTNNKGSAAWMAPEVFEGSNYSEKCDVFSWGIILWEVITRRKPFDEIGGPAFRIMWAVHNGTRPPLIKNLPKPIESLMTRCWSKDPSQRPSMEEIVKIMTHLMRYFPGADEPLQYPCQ

TLK2(h) (human) = TLK2(h) (human) (UniProt Q86UE8)
Snk(h) (human) = Snk(h) (human) (UniProt Q9NYY3)
FGFR3(h) (human) = FGFR3(h) (human) (UniProt P22607)
Chain of FGFR3(h) (human) (P22607 448-759 limits assumed): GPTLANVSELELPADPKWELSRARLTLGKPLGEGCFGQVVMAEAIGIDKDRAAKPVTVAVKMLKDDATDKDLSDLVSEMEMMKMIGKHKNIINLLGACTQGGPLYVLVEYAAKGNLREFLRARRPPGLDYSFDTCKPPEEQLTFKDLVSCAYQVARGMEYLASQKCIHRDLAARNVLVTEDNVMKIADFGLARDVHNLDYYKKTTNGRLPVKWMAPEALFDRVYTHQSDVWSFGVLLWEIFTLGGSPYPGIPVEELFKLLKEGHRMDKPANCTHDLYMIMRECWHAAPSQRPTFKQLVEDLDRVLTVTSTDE

Met(Y1248D)(h) (human) = Met(Y1248D)(h) (human) (UniProt P08581)
Aurora-A(h) (human) = molecular target: T4, Aurora-A(h) (human) (UniProt O14965)
T4 sequence (looked up): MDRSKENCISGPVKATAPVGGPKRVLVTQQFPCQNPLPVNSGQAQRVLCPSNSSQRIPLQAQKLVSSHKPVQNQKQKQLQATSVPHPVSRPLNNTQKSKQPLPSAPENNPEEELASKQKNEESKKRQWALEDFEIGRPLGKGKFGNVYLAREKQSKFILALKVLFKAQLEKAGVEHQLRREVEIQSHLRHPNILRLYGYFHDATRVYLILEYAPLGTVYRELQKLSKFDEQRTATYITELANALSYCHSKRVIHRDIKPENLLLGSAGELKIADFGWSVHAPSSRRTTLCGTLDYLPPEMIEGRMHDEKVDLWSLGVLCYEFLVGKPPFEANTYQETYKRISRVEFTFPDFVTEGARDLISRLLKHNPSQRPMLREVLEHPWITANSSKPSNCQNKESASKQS

PAK5(h) (human) = PAK5(h) (human) (UniProt Q9P286)
Abl(H396P)(h) (human) = Abl(H396P)(h) (human) (UniProt P00519)
Chain of Abl(H396P)(h) (human) (P00519 27-1130 H396P limits assumed): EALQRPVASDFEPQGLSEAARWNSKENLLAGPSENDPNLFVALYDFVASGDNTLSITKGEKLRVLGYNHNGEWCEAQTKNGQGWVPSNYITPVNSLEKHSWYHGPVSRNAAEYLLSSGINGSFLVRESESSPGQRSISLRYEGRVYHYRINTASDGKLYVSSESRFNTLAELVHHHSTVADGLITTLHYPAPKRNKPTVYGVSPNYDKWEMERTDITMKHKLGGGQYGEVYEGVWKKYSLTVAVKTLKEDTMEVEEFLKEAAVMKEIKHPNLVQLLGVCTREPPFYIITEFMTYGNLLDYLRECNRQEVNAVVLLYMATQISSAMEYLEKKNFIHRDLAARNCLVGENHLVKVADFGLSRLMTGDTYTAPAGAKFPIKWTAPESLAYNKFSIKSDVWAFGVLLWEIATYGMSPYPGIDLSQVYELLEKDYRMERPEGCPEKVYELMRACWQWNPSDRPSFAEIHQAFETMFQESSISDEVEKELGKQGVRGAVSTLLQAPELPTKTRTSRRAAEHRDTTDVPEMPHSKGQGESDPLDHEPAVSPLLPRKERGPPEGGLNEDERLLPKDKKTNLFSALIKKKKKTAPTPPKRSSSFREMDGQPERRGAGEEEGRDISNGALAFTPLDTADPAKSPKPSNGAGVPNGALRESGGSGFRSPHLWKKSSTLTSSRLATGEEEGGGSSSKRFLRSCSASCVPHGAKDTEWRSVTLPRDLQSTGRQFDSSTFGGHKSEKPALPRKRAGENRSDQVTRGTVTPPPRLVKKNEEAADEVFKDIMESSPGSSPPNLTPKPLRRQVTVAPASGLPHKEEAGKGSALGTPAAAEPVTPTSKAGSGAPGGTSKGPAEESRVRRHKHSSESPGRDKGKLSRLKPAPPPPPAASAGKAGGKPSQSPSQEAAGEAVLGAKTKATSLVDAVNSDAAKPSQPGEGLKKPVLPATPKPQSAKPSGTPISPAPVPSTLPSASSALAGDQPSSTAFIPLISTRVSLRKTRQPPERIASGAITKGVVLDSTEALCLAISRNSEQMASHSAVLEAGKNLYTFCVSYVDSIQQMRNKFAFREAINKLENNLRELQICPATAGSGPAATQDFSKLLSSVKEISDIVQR

HIPK3(h) (human) = HIPK3(h) (human) (UniProt Q9H422)
Lck(h) (human) = Lck(h) (human) (UniProt P06239)

Chain of MKK7β(h) (human) (O14733 whole entry): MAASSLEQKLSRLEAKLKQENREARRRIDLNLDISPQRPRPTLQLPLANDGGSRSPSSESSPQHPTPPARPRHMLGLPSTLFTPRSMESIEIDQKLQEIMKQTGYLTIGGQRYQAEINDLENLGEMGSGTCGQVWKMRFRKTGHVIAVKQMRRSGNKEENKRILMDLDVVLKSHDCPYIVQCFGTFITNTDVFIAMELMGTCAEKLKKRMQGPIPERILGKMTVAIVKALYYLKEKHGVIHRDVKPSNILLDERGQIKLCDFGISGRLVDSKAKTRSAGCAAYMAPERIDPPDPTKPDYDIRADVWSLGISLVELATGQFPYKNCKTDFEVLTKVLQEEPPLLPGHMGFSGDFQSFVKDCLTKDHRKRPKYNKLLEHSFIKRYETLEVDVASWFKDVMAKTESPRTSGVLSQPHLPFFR

Row | % activity at 100 µM (MKK7β(h) (human)) [%] | % activity at 100 µM (JAK3(h) (human)) [%] | % activity at 100 µM (Yes(h) (human)) [%] | % activity at 100 µM (BrSK2(h) (human)) [%] | % activity at 100 µM (EphA2(h) (human)) [%] | % activity at 100 µM (Met(Y1248H)(h) (human)) [%] | % activity at 100 µM (ACK1(h) (human)) [%] | % activity at 100 µM (JNK1α1(h) (human)) [%] | % activity at 100 µM (MSSK1(h) (human)) [%] | % activity at 100 µM (FAK(h) (human)) [%] | % activity at 100 µM (FGFR1(V561M)(h) (human)) [%] | % activity at 100 µM (BTK(h) (human)) [%] | % activity at 100 µM (Fms(Y969C)(h) (human)) [%] | % activity at 100 µM (SRPK2(h) (human)) [%] | % activity at 100 µM (EGFR(L858R)(h) (human)) [%] | % activity at 100 µM (TAK1(h) (human)) [%] | % activity at 100 µM (TLK2(h) (human)) [%] | % activity at 100 µM (Snk(h) (human)) [%] | % activity at 100 µM (FGFR3(h) (human)) [%] | % activity at 100 µM (Met(Y1248D)(h) (human)) [%] | Substance | also measured
1 | 94 | 122 | 14 | 86 | 17 | 63 | 95 | 98 | 75 | 96 | 74 | 94 | 91 | 97 | 52 | 177 | 151 | 131 | 0 | 31 | MMI-0400 (peptide) | 
2 |  | 95 |  | 84 |  | 126 | 64 |  | 22 | 94 |  | 18 |  | 80 | 26 |  | 133 | 122 | 10 | 218 | MMI-0500 (peptide) | % activity at 100 µM (Aurora-A(h) (human)): 110%; % activity at 100 µM (PAK5(h) (human)): 125%; % activity at 100 µM (Abl(H396P)(h) (human)): 51%; % activity at 100 µM (HIPK3(h) (human)): 85%; % activity at 100 µM (Lck(h) (human)): 359%
3 | 100 |  | 67 | 83 | 31 |  |  | 97 | 77 |  | 74 |  | 72 |  |  | 122 |  |  |  |  | MMI-0300 (peptide) | % activity at 100 µM (Aurora-A(h) (human)): 92%; % activity at 100 µM (PAK5(h) (human)): 110%; % activity at 100 µM (Abl(H396P)(h) (human)): 101%; % activity at 100 µM (HIPK3(h) (human)): 93%; % activity at 100 µM (Lck(h) (human)): -2%
